Patent publication US20240116984A1, “MODIFIED PEPTIDES FOR THE INHIBITION OF ABNORMAL TAU ACCUMULATION” (University of Notre Dame du Lac, priority 2021, published 2024)

Molecular target: tau-RD (P301L/V337M)-YFP, stably expressed in HEK293 biosensor cells (UniProt P10636)
Assay: cell-based or functional assay

Chain of tau-RD (P301L/V337M)-YFP, stably expressed in HEK293 biosensor cells (P10636 561-689 P618L/V654M): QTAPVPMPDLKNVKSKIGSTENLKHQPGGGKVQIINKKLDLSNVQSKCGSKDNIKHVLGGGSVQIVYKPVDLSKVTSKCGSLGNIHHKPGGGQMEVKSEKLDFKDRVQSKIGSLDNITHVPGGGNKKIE

aggregate-containing HEK293 biosensor cells (punctate fluorescence after 48 h) on treatment with preformed heparin-induced tauP301L fibrils: 38%
Substance: Human tauP301L (0N4R), recombinant, N-terminal His tag (from UniProt P10636 2-758)
